Assay results: article PMC3745449

Assays:
[1] = target: His6-tagged N-terminal domain of turkey pancreatic lipase (turkey)
[2] = target: His6-tagged N-terminal domain of turkey pancreatic lipase (turkey); remark: listed apart in the source

time for which N-TPL stays active in tributyrin (TC4) hydrolysis (pH-Stat, pH 8.5, 37°C) with colipase; without colipase the activity is lost after 3 min [1]: > 8 min
increase of N-TPL lipase activity on tributyrin (TC4) when colipase is present in the hydrolysis medium [2]: 15%
Substance: Turkey colipase (natural protein)
